Tests used:
[1] = tested on: mouse macrophage cell line RAW264.7; experiment: IHC and flow cytometry staining of RAW mouse macrophages; format: cell-based
Experimental: The expression of Gal3 on mouse macrophages was detected by both IHC and Flow cytometry analysis. In the details of IHC, 100,000 cells per well were seeded overnight. On the second day, cells were washed once with PBS, fixed with 3% formaldehyde at room temperature for 10 min, then washed twice with PBS and blocked in PBS containing 10% FBS and […] for 1 h at room temperature. After blocking, cells were incubated with 10 μg/mL of 1st antibody mIgG-biotin (BioLegend) or IMT001-biotin at 4° C. overnight, washed three times with PBST, stained with avidin-HRP (1:1000) at room temperature for 1 h and then washed three times again with PBST. The staining was developed using peroxidase substrate and counterstained with Hematoxylin QS (Vector Laboratories).
In the experiment of flow cytometry, 100,000 RAW cells were blocked with 10% FBS plus 200 μg/mL hIgG on ice for 20 min, and then incubated with 100 μl 10% FBS HBSS solution that contains control mIgG (BD Biosciences) or IMT001 at 10 μg/ml on ice for 20 minutes. Then cells were washed and incubated with APC conjugated anti-mFc antibodies (Jackson ImmunoResearch) at 1:100 on ice for 20 min. After spinning, live/dead cells were stained with Violet dead cell stain kit (Life Technologies). Stained cells were subjected to flow analysis.

hGal3 peptide = experiment: Gal3 peptide library ELISA (Example 25); format: binding, human; conditions: peptide array ELISA
Outline: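 Wells coated overnight at 4 °C with 20-mer hGal3 peptides (at least 2 μg/ml) or full-length human Gal3 (0.1 μg/ml), then blocked with 2% BSA. Anti-Gal3 hybridoma supernatants or antibodies (at least 0.1 μg/ml) bound 1 h at room temperature, detected with anti-mouse or anti-rat IgG-HRP and TMB at 450 nm.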

Galectin-3 = Galectin-3 (Homo sapiens, UniProt P17931); experiment: SPR (BiacoreT200) binding affinity; conditions: 25° C., read-out: hGal-3 KD
Sequence of Galectin-3 (P17931 whole entry): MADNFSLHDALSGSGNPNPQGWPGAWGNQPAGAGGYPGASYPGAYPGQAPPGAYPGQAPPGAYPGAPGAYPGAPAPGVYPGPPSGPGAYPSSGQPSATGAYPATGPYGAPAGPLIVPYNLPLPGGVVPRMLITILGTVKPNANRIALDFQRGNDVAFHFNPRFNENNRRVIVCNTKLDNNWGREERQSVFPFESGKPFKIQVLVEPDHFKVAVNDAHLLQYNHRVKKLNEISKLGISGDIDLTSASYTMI

human Gal3-His = human Gal3-His (Homo sapiens, UniProt P17931); experiment: Antibody binning by biolayer interferometry (Gator); format: binding; conditions: antibody competition
Sequence of human Gal3-His (P17931 whole entry): as above

Kd (Galectin-3): 1.67 nM | Bin (human Gal3-His): 1
B1: IMT001: anti-Gal3 monoclonal antibody (Immutics); printed as mIMT001 (IMT001), murine (antibody, V domains shown)
VH: QIQLVQSGPELKKPGETVKISCKASGYTFTNYGMNWVKQAPGKGLKWMGWINTNTGEPTYVEEFKGRFAFSLETSASTAYLQINNLKNEDTATYFCAPYDNFFAYWGQGTLVTVSA
VL: DIVITQDELSNPVTSGESVSISCRSSKSLLYKDGKTYLNWFLQRPGQSPQLLIYLMSTHASGVSDRFSGSGSGTDFTLEISRVKAEDVGVYYCQQLVDYPLTFGAGTKLELK
IHC detection of Gal3 on macrophages ([1]; 10 μg/mL, vs mIgG control): clearly detected Gal3 expression on macrophages | MFI of stained RAW cells vs isotype control ([1]; 10 μg/ml, flow cytometry): more than 10 folds | Gal3 peptide bound (hGal3 peptide): peptide 6

Reference: patent publication US20220380473A1, “ANTI-GAL3 ANTIBODIES AND USES THEREOF” (TrueBinding, Inc., priority 2019, published 2022)
